Literature values in publication PMC4519920.

Molecular target: hsp70 (UniProt P0DMV8)
Chain of UniProt P0DMV8 (P0DMV8 2-641): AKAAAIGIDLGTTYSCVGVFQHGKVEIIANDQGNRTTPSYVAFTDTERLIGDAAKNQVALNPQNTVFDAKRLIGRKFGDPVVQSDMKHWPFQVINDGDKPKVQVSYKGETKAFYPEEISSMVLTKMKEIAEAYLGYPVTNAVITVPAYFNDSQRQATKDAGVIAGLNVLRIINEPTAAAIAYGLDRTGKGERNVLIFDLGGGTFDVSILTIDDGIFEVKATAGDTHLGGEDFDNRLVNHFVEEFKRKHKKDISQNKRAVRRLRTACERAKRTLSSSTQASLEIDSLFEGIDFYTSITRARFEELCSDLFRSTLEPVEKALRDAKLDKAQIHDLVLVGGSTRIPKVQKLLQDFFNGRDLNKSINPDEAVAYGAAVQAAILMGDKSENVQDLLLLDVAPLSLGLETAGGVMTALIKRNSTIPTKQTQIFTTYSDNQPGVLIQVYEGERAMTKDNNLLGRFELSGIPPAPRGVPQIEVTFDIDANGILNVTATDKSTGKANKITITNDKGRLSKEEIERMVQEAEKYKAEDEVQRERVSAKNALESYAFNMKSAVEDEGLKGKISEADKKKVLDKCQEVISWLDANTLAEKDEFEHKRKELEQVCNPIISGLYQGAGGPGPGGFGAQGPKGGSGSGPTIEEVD

Nucleoprotein NTAIL Box2 (from UniProt P35972)
Kd: 10 nM
